The target in one assay is T1, hRetromer (Homo sapiens, UniProt O75436+Q96QK1+Q9UBQ0).
T1 construct: GST (pGEX4T-2, thrombin site plus linker) (N, cleaved yes); made in house; host or cells: E. coli BL21 (DE3)
In words: Isothermal titration calorimetry (ITC) of binding to Retromer. The note with it: ITC, 25 °C, 530 µM TBC1D13 titrated into 14 µM Retromer, mean of triplicate titrations. Here is the method:
All the bacteria constructs were expressed in BL21 (DE3) cells using the autoinduction method. In brief, cultures grown in complex medium were incubated at 37 °C for 4 h, followed by overnight growth at 20 °C before harvesting for purification. […] In all cases, the soluble fractions clarified by centrifugation were loaded onto pre-equilibrated glutathione sepharose (GE healthcare) for initial purification. For Retromer, an additional Talon® resin purification step was performed to ensure the correct stoichiometry. GST-tag removal was carried out co-column overnight by adding thrombin for Human Retromer and PreScission protease for TBC1D13. The GST-tag removed fraction was further purified by size-exclusion chromatography (SEC) using a Superdex 200 (16/600) column (GE Healthcare) equilibrated with buffer containing 50 mM Tris-HCl pH 7.5, 200 mM NaCl, 2 mM β-ME.
The effect of cyclic peptide was assessed by pre-mixing 140 µM RT-D1 into 14 µM Retromer before titrating with 1 mM of native DENND4C1189-1206 peptide. For the binding experiment between Retromer and TBC1D13, 530 µM of TBC1D13 was titrated into 14 µM Retromer. The effect of the cyclic peptide was tested using the same concentration of RT-D1 as described above. All ITC experiments consisted of an initial 0.4 μl (not used in data processing), followed by 12 serial injections of 3.22 μl each with 180 sec intervals. […]
A general note: Isothermal titration calorimetry measures the heat released or taken up as one component is titrated into another.

Assay [1] deals with GLUT1, LAT1, KIDINS220, ATP7A, CTR1 surface levels in HeLa cells. Nature of the assay: Surface biotinylation and streptavidin purification: cell surface protein levels. Type of assay: cell-based, human. The note with it: Hela cells transduced with GFP-RAB10 T23N; PAR+GFP = 100; mean of n = 3. Here is the method:
For every kind of protein extraction, buffers were pre-chilled, and cells and samples placed on ice. For basic western blot (WB), cells were lysed in ~ pH 7.2 phosphate buffered saline (PBS) with 1% (v/v) Triton X-100 and protease inhibitors (Thermo Fisher, A32955). The protein concentration was determined with a bicinchoninic acid (BCA) assay kit (Thermo Fisher, 23225) and equal amounts were denaturised (LDS Sample buffer (Thermo Fisher, NP0008), 3% β-mercaptoethanol (Sigma-Aldrich, M6250), 10 min at 95 °C) and resolved by SDS-PAGE on NuPAGE 4–12% precast gels (Invitrogen, NP0336BOX). Protein samples were then transferred onto methanol-activated polyvinylidene fluoride (PVDF) membrane (Immobilon-FL membrane, pore size 0.45μm; Millipore, IPFL00010). The membrane was blocked, then sequentially labelled with primary and secondary antibodies. Fluorescence detected by scanning with a LI-COR Odyssey scanner and Image Studio analysis software (LI-COR Biosciences). Typically, we performed WB in where a single blot is simultaneously probed with antibodies against 2 proteins of interest (distinct antibody species), followed by visualisation with the corresponding secondary antibodies conjugated to distinct spectral dyes. All steps were carried out on ice to prevent surface protein internalisation. […] The protein concentration was determined by BCA. […]

A word on the Kd: it is a measure of binding affinity in units of concentration.

B1: hTBC1D13TBC: recombinant full-length human TBC1D13, RAB35 GAP, expressed in bacteria (protein)
chain: MSSLHKSRIADFQDVLKEPSIALEKLRELSFSGIPCEGGLRCLCWKILLNYLPLERASWTSILAKQRELYAQFLREMIIQPGIAKANMGVSREDVTFEDHPLNPNPDSRWNTYFKDNEVLLQIDKDVRRLCPDISFFQRATDYPCLLILDPQNEFETLRKRVEQTTLKSQTVARNRSGVTNMSSPHKNSVPSSLNEYEVLPNGCEAHWEVVERILFIYAKLNPGIAYVQGMNEIVGPLYYTFATDPNSEWKEHAEADTFFCFTNLMAEIRDNFIKSLDDSQCGITYKMEKVYSTLKDKDVELYLKLQEQNIKPQFFAFRWLTLLLSQEFLLPDVIRIWDSLFADDNRFDFLLLVCCAMLMLIREQLLEGDFTVNMRLLQDYPITDVCQILQKAKELQDSK
modifications: left off: GST, end not stated, cleaved
notes: recombinant full-length human TBC1D13, RAB35 GAP, expressed in bacteria
For B1, the “-TΔS” value in the assay with hRetromer was 1.0 ± 1.4 kcal/mol. Further, the equilibrium dissociation constant (Kd) with hRetromer (single-site binding model, read-out: Kd) was 6.3 ± 1.2 µM.

B2: GFP-RAB10T23N (protein, UniProt P61026 1-200, looked up, variant T23N)
Ras-related protein Rab-10: MAKKTYDLLFKLLLIGDSGVGKNCVLFRFSDDAFNTTFISTIGIDFKIKTVELQGKKIKLQIWDTAGQERFHTITTSYYRGAMGIMLVYDITNGKSFENISKWLRNIDEHANEDVERMLLGNKCDMDDKRVVPKGKGEQIAREHGIRFFETSAKANINIEKAFLTLAEDILRKTPVKEPNSENVDISSGGGVTGWKSKCC
modifications: GFP fusion
With B2, the “CTR1 Surface (LAT1 normalized)” value in assay [1] is given as 77.05.
